Data reported in the supplement of paper PMC9112550, “Optimization of the antimicrobial peptide Bac7 by deep mutational scanning” (BMC Biology, 2022).

These sequences were tested on Escherichia coli TOP10 (assay: shrunken log2 fold change of peptide-encoding DNA abundance (4.5 h post-induction vs induction); higher = less antimicrobial activity (less host growth inhibition)). Conditions: time post-induction: 4.5 h; library: site-saturation at positions 5, 18, 19, 20.
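Note: peptides expressed intracellularly from a pBAD plasmid library in pooled LB shake-flask culture, induced with 0.3% L-arabinose, DNA abundance read by NGS, three biological replicates, DESeq2 with apeglm shrinkage.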

| Sequence | shrunken log2 fold change |
| --- | --- |
| RRIRARPPRLPRPRPRPVHIPRP | -0.177 |
| RRIRRRPPRLPRPRPRPPRYPRP | 0.978 |
| RRIRSRPPRLPRPRPRPPKVPRP | -0.211 |
| RRIRIRPPRLPRPRPRPAICPRP | -0.15 |
| RRIRGRPPRLPRPRPRPEEIPRP | 0.842 |
| RRIRFRPPRLPRPRPRPNDNPRP | -0.616 |
| RRIRSRPPRLPRPRPRPTEAPRP | 0.0706 |
| RRIRPRPPRLPRPRPRPGWHPRP | 0.248 |
| RRIRIRPPRLPRPRPRPFMHPRP | -0.0575 |
| RRIRHRPPRLPRPRPRPTHYPRP | -0.26 |
| RRIRKRPPRLPRPRPRPLYYPRP | -0.458 |
| RRIRTRPPRLPRPRPRPFTTPRP | -0.0286 |
| RRIRTRPPRLPRPRPRPQWVPRP | 0.143 |
| RRIRCRPPRLPRPRPRPRGKPRP | 0.777 |
| RRIRDRPPRLPRPRPRPGANPRP | 0.19 |
| RRIRCRPPRLPRPRPRPSWIPRP | -0.732 |
| RRIRCRPPRLPRPRPRPYYAPRP | -1.1 |
| RRIRARPPRLPRPRPRPGWWPRP | 0.235 |
| RRIRARPPRLPRPRPRPGPQPRP | 0.367 |
| RRIRERPPRLPRPRPRPGEAPRP | 0.139 |
| RRIRSRPPRLPRPRPRPINHPRP | -0.662 |
| RRIRWRPPRLPRPRPRPMAPPRP | 0.0741 |
| RRIRKRPPRLPRPRPRPWTRPRP | -0.0844 |
| RRIRIRPPRLPRPRPRPSSAPRP | -0.666 |
| RRIRFRPPRLPRPRPRPKGLPRP | -0.146 |

| Sequence | shrunken log2 fold change |
| --- | --- |
| RRIRMRPPRLPRPRPRPPEIPRP | 0.48 |
| RRIRMRPPRLPRPRPRPAIKPRP | -0.183 |
| RRIRPRPPRLPRPRPRPKQTPRP | 0.327 |
| RRIRYRPPRLPRPRPRPMKQPRP | -0.0304 |
| RRIRNRPPRLPRPRPRPMIDPRP | -0.0621 |
| RRIRWRPPRLPRPRPRPIPAPRP | 0.523 |
| RRIRARPPRLPRPRPRPWNKPRP | -0.0945 |
| RRIRKRPPRLPRPRPRPVEQPRP | 0.12 |
| RRIRLRPPRLPRPRPRPISPPRP | -0.333 |
| RRIRVRPPRLPRPRPRPDPTPRP | 0.106 |
| RRIRIRPPRLPRPRPRPCNSPRP | -0.271 |
| RRIRVRPPRLPRPRPRPLVFPRP | -0.00523 |
| RRIRHRPPRLPRPRPRPLWKPRP | -0.102 |
| RRIRLRPPRLPRPRPRPCSDPRP | 0.0181 |
| RRIRCRPPRLPRPRPRPTVDPRP | 0.337 |
| RRIRWRPPRLPRPRPRPAHFPRP | 0.141 |
| RRIRRRPPRLPRPRPRPCPMPRP | -0.0862 |
| RRIRGRPPRLPRPRPRPPFTPRP | 0.462 |
| RRIRCRPPRLPRPRPRPMYLPRP | -0.464 |
| RRIRHRPPRLPRPRPRPGWDPRP | 0.18 |
| RRIRERPPRLPRPRPRPEERPRP | 0.0375 |
| RRIRTRPPRLPRPRPRPQDTPRP | -0.284 |
| RRIRLRPPRLPRPRPRPLPFPRP | -0.289 |
| RRIRARPPRLPRPRPRPPNMPRP | -0.0722 |
| RRIRLRPPRLPRPRPRPQGMPRP | -0.0379 |

| Sequence | shrunken log2 fold change |
| --- | --- |
| RRIRTRPPRLPRPRPRPENVPRP | -0.0181 |
| RRIRSRPPRLPRPRPRPSVWPRP | 0.0903 |
| RRIRYRPPRLPRPRPRPSKIPRP | -0.502 |
| RRIRGRPPRLPRPRPRPMVGPRP | 0.108 |
| RRIRERPPRLPRPRPRPIYMPRP | -0.372 |
| RRIRYRPPRLPRPRPRPTDSPRP | -0.678 |
| RRIRLRPPRLPRPRPRPRMGPRP | 0.135 |
| RRIRARPPRLPRPRPRPDVPPRP | -0.0329 |
| RRIRIRPPRLPRPRPRPNLSPRP | -0.0917 |
| RRIRMRPPRLPRPRPRPYFEPRP | -0.318 |
| RRIRSRPPRLPRPRPRPPIKPRP | -0.221 |
| RRIRNRPPRLPRPRPRPLITPRP | -0.173 |
| RRIRFRPPRLPRPRPRPSQDPRP | 0.0128 |
| RRIRHRPPRLPRPRPRPKDAPRP | -0.112 |
| RRIRYRPPRLPRPRPRPQEDPRP | -0.135 |
| RRIRWRPPRLPRPRPRPMREPRP | 1.09 |
| RRIRKRPPRLPRPRPRPPERPRP | 2.02 |
| RRIRFRPPRLPRPRPRPGMTPRP | -0.142 |
| RRIRHRPPRLPRPRPRPLYDPRP | -0.738 |
| RRIRLRPPRLPRPRPRPFEWPRP | -0.151 |
| RRIRPRPPRLPRPRPRPPCHPRP | 0.0684 |
| RRIRNRPPRLPRPRPRPQHEPRP | -0.0581 |
| RRIRKRPPRLPRPRPRPFDSPRP | -0.0504 |
| RRIRIRPPRLPRPRPRPQWEPRP | -0.0938 |
| RRIRNRPPRLPRPRPRPEEVPRP | -0.00192 |

| Sequence | shrunken log2 fold change |
| --- | --- |
| RRIRTRPPRLPRPRPRPESEPRP | -0.0433 |
| RRIRVRPPRLPRPRPRPRSNPRP | 0.125 |
| RRIRVRPPRLPRPRPRPPIDPRP | 0.0721 |
| RRIRTRPPRLPRPRPRPMWRPRP | -0.0938 |
| RRIRRRPPRLPRPRPRPTWYPRP | 0.0312 |
| RRIRTRPPRLPRPRPRPWKKPRP | 0.0414 |
| RRIRPRPPRLPRPRPRPYDKPRP | -0.512 |
| RRIRKRPPRLPRPRPRPWRRPRP | 0.0332 |
| RRIRTRPPRLPRPRPRPQIVPRP | 0.0532 |
| RRIRMRPPRLPRPRPRPLHGPRP | 0.108 |
| RRIRERPPRLPRPRPRPQVRPRP | -0.0385 |
| RRIRERPPRLPRPRPRPCWWPRP | 0.288 |
| RRIRPRPPRLPRPRPRPHCRPRP | -0.198 |
| RRIRWRPPRLPRPRPRPGKYPRP | -0.227 |
| RRIRARPPRLPRPRPRPAPWPRP | 0.632 |
| RRIRERPPRLPRPRPRPHVNPRP | -1.04 |
| RRIRWRPPRLPRPRPRPGKRPRP | 0.37 |
| RRIRNRPPRLPRPRPRPAVPPRP | -0.165 |
| RRIRKRPPRLPRPRPRPLIIPRP | -0.501 |
| RRIRARPPRLPRPRPRPMDSPRP | -0.104 |
| RRIRSRPPRLPRPRPRPDKVPRP | 0.151 |
| RRIRERPPRLPRPRPRPQRTPRP | -0.233 |
| RRIRWRPPRLPRPRPRPWFHPRP | -0.125 |
| RRIRGRPPRLPRPRPRPAWLPRP | 0.694 |
| RRIRHRPPRLPRPRPRPKYQPRP | -0.145 |

| Sequence | shrunken log2 fold change |
| --- | --- |
| RRIRRRPPRLPRPRPRPSELPRP | 0.0695 |
| RRIRCRPPRLPRPRPRPGQKPRP | 0.0902 |
| RRIRIRPPRLPRPRPRPGTKPRP | -0.0997 |
| RRIRLRPPRLPRPRPRPVRGPRP | 0.682 |
| RRIRGRPPRLPRPRPRPFGAPRP | 0.793 |
| RRIRPRPPRLPRPRPRPPNSPRP | -0.0717 |
| RRIRDRPPRLPRPRPRPMHLPRP | -0.339 |
| RRIRTRPPRLPRPRPRPYMFPRP | -0.776 |
| RRIRFRPPRLPRPRPRPGDMPRP | -0.311 |
| RRIRQRPPRLPRPRPRPAAVPRP | -0.0726 |
| RRIRYRPPRLPRPRPRPKNIPRP | -0.127 |
| RRIRMRPPRLPRPRPRPWRGPRP | 0.497 |
| RRIRWRPPRLPRPRPRPFFKPRP | -0.0879 |
| RRIRRRPPRLPRPRPRPEAIPRP | 0.445 |
| RRIRGRPPRLPRPRPRPTNVPRP | 0.141 |
| RRIRDRPPRLPRPRPRPIQCPRP | 0.0299 |
| RRIRSRPPRLPRPRPRPILCPRP | -0.35 |
| RRIRQRPPRLPRPRPRPCKGPRP | 0.00408 |
| RRIRIRPPRLPRPRPRPDQMPRP | -0.393 |
| RRIRYRPPRLPRPRPRPGDCPRP | -0.189 |
| RRIRKRPPRLPRPRPRPRSMPRP | -0.164 |
| RRIRIRPPRLPRPRPRPCSTPRP | -0.484 |
| RRIRLRPPRLPRPRPRPKVWPRP | 0.0698 |
| RRIRERPPRLPRPRPRPFYPPRP | -0.834 |
| RRIRQRPPRLPRPRPRPGRWPRP | 0.446 |

| Sequence | shrunken log2 fold change |
| --- | --- |
| RRIRCRPPRLPRPRPRPRKWPRP | -0.0179 |
| RRIRKRPPRLPRPRPRPGRQPRP | 0.143 |
| RRIRLRPPRLPRPRPRPRVPPRP | 0.264 |
| RRIRYRPPRLPRPRPRPAKAPRP | 0.0797 |
| RRIRPRPPRLPRPRPRPKDEPRP | 0.363 |
| RRIRGRPPRLPRPRPRPLIMPRP | 0.206 |
| RRIRHRPPRLPRPRPRPRMMPRP | -0.0987 |
| RRIRNRPPRLPRPRPRPMSDPRP | -0.00992 |
| RRIRLRPPRLPRPRPRPDWYPRP | -0.464 |
| RRIRKRPPRLPRPRPRPSTLPRP | 0.252 |
| RRIRIRPPRLPRPRPRPVRYPRP | 0.326 |
| RRIRFRPPRLPRPRPRPVYHPRP | -1.19 |
| RRIRVRPPRLPRPRPRPNHAPRP | 0.0625 |
| RRIRDRPPRLPRPRPRPSLIPRP | -0.156 |
| RRIRDRPPRLPRPRPRPPAGPRP | 0.418 |
| RRIRDRPPRLPRPRPRPDFFPRP | 0.195 |
| RRIRHRPPRLPRPRPRPRLQPRP | 0.0915 |
| RRIRRRPPRLPRPRPRPGDSPRP | 0.269 |
| RRIRKRPPRLPRPRPRPICYPRP | 0.125 |
| RRIRFRPPRLPRPRPRPCFTPRP | -0.237 |
| RRIRPRPPRLPRPRPRPYCVPRP | -0.479 |
| RRIRWRPPRLPRPRPRPNYWPRP | 1.21 |
| RRIRFRPPRLPRPRPRPQHYPRP | -1.01 |
| RRIRHRPPRLPRPRPRPRAIPRP | 0.0852 |
| RRIRCRPPRLPRPRPRPYPAPRP | -0.53 |
